Experimental findings from patent publication US20040234519A1 are described below.

Experiment [1] concerns the target T1, PTN secreted by SW13/PTN cells (SW13 human adrenal carcinoma cells stably transfected with PTN cDNA) (human) (UniProt P21246).
T1 sequence: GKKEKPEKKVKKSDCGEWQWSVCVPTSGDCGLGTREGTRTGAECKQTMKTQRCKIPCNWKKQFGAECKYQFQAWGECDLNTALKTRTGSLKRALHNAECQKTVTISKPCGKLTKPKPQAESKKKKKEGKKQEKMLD
In words: cell-based or functional assay.

For experiment [2], the target named is T2, recombinant human PTN (R & D Systems, cat# 252-PL) (human) (UniProt P21246).
T2 sequence: T1 sequence
The experiment in a line: ELISA, plate coated with rhPTN, hybridoma antibody, read at 450 nm.

The target in experiment [3] is T1, PTN secreted by SW13/PTN cells (SW13 human adrenal carcinoma cells stably transfected with PTN cDNA) (human). In words: ELISA, PTN captured from SW13/PTN supernatant by goat anti-human PTN polyclonal, read at 450 nm. (In general: ELISA stands for enzyme-linked immunosorbent assay.)

Bounds are passed on as bounds.

B1: monoclonal antibody produced by the hybridoma cell line 3B10 (antibody, V domains shown)
VH: QVQLQQSGPELVKPGASVKISCQASGYAFSSHWMNWVKQRPGKGLEWIGRIYPGDGDSLYNGKFKGKATLTADKSSTTVYMQLSSLTSEDSAVYFCARTRAYGPAWFAYWGQGTLVTVSA
VL: DIVMTQSPSSLAMSVGQKVTLSCRSSQSLLDSNNQKNYLAWYQQKPGQSPKLLVYFASIRESGVPDRFIGSGSGTDFTLTITSVQAEDLADYFCQQHYSTPLTFGAGTKLELK
modifications: N-terminus of the heavy chain blocked, most likely modified NH2-terminal glutamine
In experiment [1], B1 returned a Proliferation NIH 3T3 (inhibition) of 50 % inhibition, a Proliferation U87 MG (inhibition) of 50 % inhibition, a Proliferation WI38 (inhibition) of 25 % inhibition and a Soft Agar (inhibition) of 100 % inhibition. For the same molecule, the inhibition of SW13 colony formation in soft agar, antibody at 10 ug/ml in experiment [1] is below 95%. For the same molecule, the ELISA OD in experiment [2] came to 0.597 OD. In experiment [3], this molecule showed an ELISA OD of 0.139 OD.
